Experimental data: patent publication US20220073643A1 (NANJING GENSCRIPT BIOTECH, published 2022)
Numbering of substitutions follows the chain as printed. Where “and” joins values, the source holds several entries; their conditions need not be identical. Equal values may be shown once. Each block holds one binder with its values, some of them ahead of it.

Columns and labels:
human Claudin18.2 [1] = target: T1, human Claudin18.2 (human); test: cell ELISA, Claudin18.2-expressing HEK293T cells
T1 construct: also called CLDN18.2
Method: To determine protein binding EC₅₀ by Cell ELISA, 96-well U-bottom microplates were pre-blocked with blocking buffer (5% MPBS, 1×PBS with 5% skim milk) overnight at 4° C. On the next day, the Claudin18.2-expressing HEK293T stable cell line was suspended at 1.5×10⁶ cells/ml in blocking buffer, added to the plate in 100 μl/well and incubated at room temperature for 1 hour.
Raw data were plotted with GraphPad Prism v6.02 software with four parameters, best-fit value program to analyze the EC₅₀.

human Claudin18.2 [2] = target: human Claudin18.2 (human); test: cell-based or functional assay

EC50 (human Claudin18.2 [1]): 0.908 nM
B2: 217D9G2 (antibody, V domains shown)
VH: QAYLQQSGAELVRSGASVKMSCKASGFTFTSYNIHWVKQTPGQGLEWIGYISPGNGGSNYNLNFKDKATLTAATSSTTAYMQISSLTSEDSAVYFCATGRGFAYWGQGTLVTVSA
VL: DIVMTQSPSSLTVTPGEKVTMSCRSSQSLFNSGNQKNYLIWYQQKPGQPPKLLIYRASTRDSGVPDRFTGSGSGTDFTLTISNVQAEDLAVYYCQNDYSYPLTFGAGTKLELK
notes: mouse hybridoma mAb

EC50 (human Claudin18.2 [1]): 1.13 nM and 1.38 nM
B3: 222B6G5 (antibody, V domains shown)
VH: B2 VH with A2T, F27Y, S58T, N59Y, N63K, A72T, T77S
VL: B2 VL with R24K
notes: mouse hybridoma mAb; also called 222B6G5-2

CDC % Relative activity (human Claudin18.2 [2]): 787%
CDC EC50 (human Claudin18.2 [2]): 0.179 µg/mL
B4: 246B5F2 (antibody, IgM, V domains shown)
VH: EVMLVESGGGLMKPGGSLKLSCAASEFTFSNYAMSWVRQTPEKRLEWVATISSGRSSTYYPDSVKGRFTISRDNAKNTLYLQMSSLRSEDTAMYYCAGLGRGNAMEYWGQGTSVTVSS
VL: DIVMTQSPSSLTVTAGEKVTLSCKSSQSLLNSGNQKNYLTWYQQKPGQPPKLLIYWASTRESGVPDRFTGSGSGTDFILTINSVQAEDLAVYYCQNAYSYPFTFGSGTKLEIK

EC50 (human Claudin18.2 [1]): 0.283 nM
B6: 201F4H6 (antibody, V domains shown)
VH: QVQLKESGPGLVAPSQSLSITCTVSGFSLTSYGVSWVRQPPGKGLECLGVIWAGGNTNYNSALMSRLSISKDKSKSQVFLKMNSLQTDDTAMYYCARVYYGNAMDYWGQGTSVTVSS
VL: B4 VL with L21M, N37S, K45R, I78T, N82S, Y93F, A97V, S99F, Y100F, I112T
notes: mouse hybridoma mAb

EC50 (human Claudin18.2 [1]): 1.07 nM
B7: 181C7B2 (antibody, V domains shown)
VH: QVQLKQSGPGLVQPSQSLSITCTVSGFSLTYYGVHWVRQSPGKGLEWLGVIWRGGNTDYNAAFISRLSINKDNSKSQVFFKMNSLQPNDTAIYYCARAAYYGNCFDYWGQGTTLTVSS
VL: B4 VL with L21M, I78T, N82S, A97N, S99I, F102L, S106A, I112L
notes: mouse hybridoma mAb

CDC % Relative activity (human Claudin18.2 [2]): 161%
CDC EC50 (human Claudin18.2 [2]): 0.876 µg/mL
B9: 248E6A7 (antibody, V domains shown)
VH: QAYLQQSGAELVRSGASVKMSCRASGYTFTSHNMHWVKQTPGQGLEWIGYIYPGNGNTYYNQKFKVKATLTADTSSNTAYMQINSLTSEDSAVYFCVRDYYGNSFVYWGQGTLVTVSA
VL: DVVMTQSPSSLTEKTGEKVTMTCKSSQSLLNSGNQKNYLAWYQQKPGQPPKLLIYWASTRESGVPDRFIGSGSGTDFTLTISSLQTEDLAVYYCQNNYMYPFTFGAGTKLELK

EC50 (human Claudin18.2 [1]): 0.651 nM
B12: 232C5E3 (antibody, V domains shown)
VH: QAYLQQSGAELVRSGASVKMSCKASGYTFTSHNIHWIKQTPGKGLEWIGYIYPGNGGTNYNQKFKAKATLTADTSSSTAYMQISSLTSEDSAVYFCARDYYGNSFAYWGQGTLVTVSA
VL: DIMMTQSPSSLTETAGEKVSMSCKSSQSLLNSGNQKNYLTWYQQKPGQPPKLLIYWASTRESGVPDRFSGSGSGTDFTLTISSVQAEDLAVYYCQNGYRFPFTFGAGTKLELK
notes: mouse hybridoma mAb

EC50 (human Claudin18.2 [1]): 0.738 nM
B13: 232D7C8 (antibody, V domains shown)
VH: B12 VH with I34M, I37V, K43Q, A66G, Y101F
VL: B12 VL with M3L, E13A, L30F, K36R, K45R, S69T, G97D, F100Y
notes: mouse hybridoma mAb

EC50 (human Claudin18.2 [1]): 0.684 nM
B14: 243B4F2 (antibody, V domains shown)
VH: B12 VH with I34L, I37V, K43Q, G57N, A66G, A97T
VL: B12 VL with M3V, T14K, K18R, L30F, S69T, G97N, R99W
notes: mouse hybridoma mAb

EC50 (human Claudin18.2 [1]): ~0.439 nM
B16: 244A1B8 (antibody, V domains shown)
VH: B12 VH with I37V, K43Q, G57A, T58P, K65R, A66G, A106V
VL: B12 VL with M3V, T14K, S69T, G97D, F100Y
notes: mouse hybridoma mAb

EC50 (human Claudin18.2 [1]): 0.63 nM
B18: 235A10C9 (antibody, V domains shown)
VH: B12 VH with T30A, I34M, I37V, K43Q, G56S, N59K, K65T, A66G, S84T
VL: B12 VL with M3V, T14K, S22R, S69T, E87D, G97D, R99M
notes: mouse hybridoma mAb

EC50 (human Claudin18.2 [1]): 1.01 nM
B19: 231H4G11 (antibody, V domains shown)
VH: B12 VH with I37V, K43Q, Y52S, G57Y, K65R, A66G, A97T
VL: B12 VL with M3V, T14K, K18R, L30F, N34S, G97N, R99W
notes: mouse hybridoma mAb

EC50 (human Claudin18.2 [1]): 0.415 nM
B23: 250F4G1 (antibody, V domains shown)
VH: B12 VH with I34M, I37V, K43Q, G57R, A66G, A97T
VL: B12 VL with M3V, T14K, A15V, K18R, L30F, S69T, G97D, R99W, F100Y
notes: mouse hybridoma mAb

More lines, now with the values behind:

B1: 207F8G5 (antibody, V domains shown)
VH: B2 VH with N63K, A72S, T77S
VL: B2 VL with R24K, V91I
notes: mouse hybridoma mAb
EC50 (human Claudin18.2 [1]): 0.822 nM

B5: 200A4H8 (antibody, V domains shown)
VH: B7 VH with Y31R, R53S, S68N, N70R, Q86K, Y101F, C104S
VL: B2 VL with T12P, P15A, R24K, F30L, I40T, R56W, N83S, D97N, S99I
notes: mouse hybridoma mAb
EC50 (human Claudin18.2 [1]): 1.01 nM

B8: 243F6D2 (antibody, V domains shown)
VH: B9 VH with N57G, V66G, N77S, N84S, V97A
VL: B9 VL with T20S, T22S, A40T, I69T, M99R
CDC % Relative activity (human Claudin18.2 [2]): 70.5%
CDC EC50 (human Claudin18.2 [2]): 2 µg/mL

B10: 244A1B8 (antibody, V domains shown)
VH: B12 VH with I37V, K43Q, G57A, T58P, K65R, A66G, A106V
VL: B12 VL with M3V, T14K, S69T, G97D, F100Y
CDC % Relative activity (human Claudin18.2 [2]): 102%
CDC EC50 (human Claudin18.2 [2]): 1.39 µg/mL

B11: 280F3B6 (antibody, V domains shown)
VH: B12 VH with I34M, I37V, K43Q, A66G, A97T
VL: B12 VL with M3V, T14K, K18R, L30F, S69T, G97D, R99W, F100Y
notes: mouse hybridoma mAb
EC50 (human Claudin18.2 [1]): 0.582 nM

B15: 234E1F12 (antibody, V domains shown)
VH: B12 VH with I34M, I37V, G42R, K43Q, G57D, A66G, A97T
VL: B12 VL with M3V, T14K, K18R, L30F, S69T, G97A, R99W, F100Y
notes: mouse hybridoma mAb
EC50 (human Claudin18.2 [1]): 0.57 nM

B17: 242H12D6 (antibody, V domains shown)
VH: B12 VH with I34M, I37V, K43Q, A66G, S84N, A97T
VL: B12 VL with M3V, T14K, K18R, L30F, S69T, G97D, F100Y
notes: mouse hybridoma mAb
EC50 (human Claudin18.2 [1]): 0.744 nM

B20: 240D6F5 (antibody, V domains shown)
VH: B12 VH with I34M, I37V, K43Q, A66G, T74P, S84N, A97T
VL: B12 VL with M3V, T14K, K18R, L30F, S69T, G97D, F100Y
notes: mouse hybridoma mAb
EC50 (human Claudin18.2 [1]): 1.77 nM

B21: 243F6D2 (antibody, V domains shown)
VH: B9 VH with N57G, V66G, N77S, N84S, V97A
VL: B9 VL with T20S, T22S, A40T, I69T, M99R
notes: mouse hybridoma mAb
EC50 (human Claudin18.2 [1]): 0.96 nM

B22: 243B4F7 (antibody, V domains shown)
VH: B12 VH with I34L, I37V, K43Q, G57N, A66G, A97T
VL: B12 VL with M3V, T14K, K18R, L30F, S69T, G97N, R99W
notes: mouse hybridoma mAb
EC50 (human Claudin18.2 [1]): ~0.411 nM

B24: 233D5E5 (antibody, V domains shown)
VH: B12 VH with I34M, I37V, G42R, K43Q, G57D, A66G, A97T
VL: B12 VL with M3V, T14K, K18R, L30F, S69T, G97A, R99W, F100Y
notes: mouse hybridoma mAb
EC50 (human Claudin18.2 [1]): 0.803 nM

B25: 234C9G5 (antibody, V domains shown)
VH: B12 VH with T28A, I34M, I37V, K43Q, Y52S, G57Y, K65R, A66G, S84G, A97T
VL: B12 VL with M3V, T14K, K18R, L30F, S69T, G97N, R99W
notes: mouse hybridoma mAb
EC50 (human Claudin18.2 [1]): 0.562 nM

B26: 239H12G9 (antibody, V domains shown)
VH: B12 VH with I37V, K43Q, G57A, T58P, K65R, A66G, A106V
VL: B12 VL with M3V, T14K, S69T, G97D, F100Y
notes: mouse hybridoma mAb
EC50 (human Claudin18.2 [1]): 0.732 nM
